According to the nanobody polyreactivity screen of Harvey et al. (2022):

Test: yeast display, Sf9 membrane polyspecificity reagent, FACS + sequencing; frameworks hold sequencing errors
Method in brief: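 A synthetic nanobody library was expressed on Saccharomyces cerevisiae BJ5465 by galactose induction for 36–48 hours. The library was stained for 1 hour at 4 °C with 10% biotinylated, detergent-solubilized Sf9 membrane reagent and enriched with streptavidin microbeads before FACS. Low and high (top ~1%) gates were set on anti-HA fluorescence for expression and streptavidin fluorescence for reagent binding, and each polyreactivity label reflects the gate of origin.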

Row | Sequence | polyreactivity (PSR sort gate)
1 | QVQLVESGGGLVQAGGSLRLSCAASGRTITFNTMGWYRQAPGKERELVAGIDRGGSTNYADSVKGRFTISRDNAKNTVYLQMNSLKPEDTAVYYCAKRWTGLGGYYYWGQGTQVTVSS | high polyreactivity
2 | QVQLVESGGGLVQAGGSLRLSCAASGRTITFYTMGWYRQAPVKERELVARITGGGSTFYADSVKGRFTISRDNAKNTVYLLMNSLKPEDTAVYYCAREYASAFWYPMYYWGQGTQVNVSS | low polyreactivity
3 | QVQLVESGGGLVQAGGSLRLSCAASGRTIVWYAMGWYRQAPGKERELVAAISKRGGSTYYADSVKGRFTISRDNAKNTVYLQMNSLKPEDTAVYYCAAEVYYGSSYGYWGQGTQVTVSS | high polyreactivity
4 | QVQLVESGGGLVQAGGSLRLSCAASGRTIWYYAMGWYRQAPGKERELVAAITNRGGSTSYADSVKVRFTISRDNVKNTVYLQMNSLKPEDTAVYYCAKENYYGGGFDYWGQGTQVTVSS | high polyreactivity
5 | QVQLVESGGGLVQAGGSLRLSCAASGRTIYQYAMGGYRQATGKARELDAAISRGGSTNFADSLKGRFTISRDNAKNTVYLQMNSLKPEDTAVYYCASWYKFLSLKRLYERDYWGQGTQVTVSS | high polyreactivity
6 | QVQLVESGGGLVQAGGSLRLSCAASGRTIYQYAMGWYRQAPGKERELVAAITDNGGRTYYADSVKGRFTISCDNAKNTVYLQMNSLKPEDTAVYYCAAEIWTYSYYVVDNGPYDYWGQGTQVTVSS | low polyreactivity
7 | QVQLVESGGGLVQAGGSLRLSCAASGRTIYYYAMGGYRQAPGKEREFVAAISWHGGSTYYADSVKGRFTISRDNAKNTVYLQMNSLKPEDTAVYYCAAERYDRVGFDYWGQGTQVTVSS | low polyreactivity
8 | QVQLVESGGGLVQAGGSLRLSCAASGRTLAFNAMGWYRQAPGKERELVAVIRNGTSTNYADSVKGRFTISRDNAKNTVYLQMNSLKPEDTAVYYCNVPYYLPSYLSGYDYWGQGTQVTVSS | low polyreactivity
9 | QVQLVESGGGLVQAGGSLRLSCAASGRTLAPYAMGWYRQAPGKERELVAISTIGGSTYYADSVKGRFTISRDNAKNTVYLQMNSLKPEETAVYYGAADGNSTGVYLAGGEGFAYDYWGQVTQVTVSS | low polyreactivity
10 | QVQLVESGGGLVQAGGSLRLSCAASGRTLASNAMGWYRQAPGKEREFVAAITDSGGRTYYADSVKGRFTISRDNAKNTVYLQMNSLKPEDTAVYYCNAYQYYERYDTYLFRYDYWGQGTQVTVSS | low polyreactivity
11 | QVQLVESGGGLVQAGGSLRLSCAASGRTLATYAMGWYRQAPGKERELVADISWRGGTTYYADSVKGRFTISRDNAKNTVYLQMNSLKPEDTAVYYCAAVRKQGSGFDYWGQGTQVTLSS | high polyreactivity
12 | QVQLVESGGGLVQAGGSLRLSCAASGRTLDKYAIGWYRQAPGKERELVAAITSGGTTKYADSVKGRFTISRDNAKNTVYLQMNSLKPEVTAVYYCAKDLEGNPHFSYGIDFDYWGQGTQVTVSS | low polyreactivity
13 | QVQLVESGGGLVQAGGSLRLSCAASGRTLDKYAMGWYRQAPGKERELVAAITSGGSTNYADSVKGRFTISRDNAKNTVYLQMNSLKPEDTAVYYCAKDLQGNPHFSYGIDFDYWGQGTQVTVSS | low polyreactivity
14 | QVQLVESGGGLVQAGGSLRLSCAASGRTLEDYVMGWYRQAPGKERELVAAISWSGVSTYYADSVKGRFTISRDNEKNTVYLQMNSLKPEDTAVYYCAKDSTADELTGFDYWGQGTQVNVSS | low polyreactivity
15 | QVQLVESGGGLVQAGGSLRLSCAASGRTLFHYAMGWYRQAPGKERELVAAIRNSDGSTYYADSVKGRFTISRDNAKNTVYLQMNSLKPEDTAVYYCAAVRRYHSYPDGGYWGQGTQVTVSS | high polyreactivity
16 | QVQLVESGGGLVQAGGSLRLSCAASGRTLGGYAMGWYIQATGKERELVAAITRRGGSTYYADSVKGRFTISRDNAKNTVYLQMNSLKPEDTAVYYCAARWYARSLTRFNYWGQGTQVTVSS | high polyreactivity
17 | QVQLVESGGGLVQAGGSLRLSCAASGRTLGGYTMGWYRQAPGKEREVVAGISFRGDSTYYADSVKGRFTLSRANAKNTVYLQMNSLKPEDTAVYYCNARGTPWRYGGDYWGQGTQVTVSS | low polyreactivity
18 | QVQLVESGGGLVQAGGSLRLSCAASGRTLGRYAMGWYRQAPGKERELVAAMNVGGGTTHYADSVKGRFTISRDNAKNTVYLQMNSLKPEDTAVYYCAAYRYTYGDRHAYDYWGQGTQVTVSS | low polyreactivity
19 | QVQLVESGGGLVQAGGSLRLSCAASGRTLGYYAMGWYRQAPGTERELVAAISGSGGITYYADSVKGRFTISRDNAKNTVYLQMNSLKPEDTAVYFCNVDPTAKWFNYDSWGQGTQVTVSS | low polyreactivity
20 | QVQLVESGGGLVQAGGSLRLSCAASGRTLHAYTMGWYRQAPGSERELVAAITRGGGNTYYADSVKGRFTISRDNAKNTVYLQLNSLKPEDTAVYYCNAAVSGYLSYEYDYWGQGTQVTVSS | low polyreactivity
21 | QVQLVESGGGLVQAGGSLRLSCAASGRTLHYYAMGWYRQAPGKERELVAAISARVGRTYYADSVKGRFTISRDNAKNTVYLQMNSLKPEDTEVYYCAAAGYITRYDRYDYWGQGTQVTVSS | high polyreactivity
22 | QVQLVESGGGLVQAGGSLRLSCAASGRTLIAYAMGWYRQAHGKEREFVAAIRADDGRTYYADSVKGRFTISRDNAKNTVYFQMNSLKPEDTAVYYCDTKADKRYRFGYWGQGTQVTVSS | high polyreactivity
23 | QVQLVESGGGLVQAGGSLRLSCAASGRTLIYNVMGWYRQAPGKERELVAAITNGGSTYYADSVKGRFTISRDNAKNTVYLQMNSLKPEDTAVYYCATRYGKTYWGQGNQVTVSS | high polyreactivity
24 | QVQLVESGGGLVQAGGSLRLSCAASGRTLKYNAKGGNRQAPGKARELVAALTNSGTRTYYADSVKGRFTISRDNAKNTVYLQMNSQKPEDTAVYYCAKDSYPYLRVGHLKYRVKTYGHWGQGTQVTVSS | high polyreactivity
25 | QVQLVESGGGLVQAGGSLRLSCAASGRTLKYYAMGWYRQAPGKERELVAAITWSGTRTFYADSVKGRFTISRDNAKNTVYLQMNSLKPEDTAVYYCARTYYGGAGYEYWGQVTQVTVSS | high polyreactivity
26 | QVQLVESGGGLVQAGGSLRLSCAASGRTLNNNAMGWYRQAPGKERELVAAISRSGGRTYYADSVKGRFTISRDNAKNTVYLQMNSLKPEDTAVYYCAAVNIRFGYADRFYYVYRGDEWGQGTQVTVSS | high polyreactivity
27 | QVQLVESGGGLVQAGGSLRLSCAASGRTLNWYAMGWYRQAPGKERELVAVINLSGGRTYYADSVKGRFTISRDNAKNTVYLQMNSLKPEDTAVYYCNAPSVWERSYEKYDYWGQATQVTVSS | low polyreactivity
28 | QVQLVESGGGLVQAGGSLRLSCAASGRTLPKYVLGWYRQSPGKERELVAAISSSGDSTYYADSVNGRFTISRDNAKNTVYLQMNILKPEDTAVYYCDKYDRNTYGYWGQGTQVTVST | low polyreactivity
29 | QVQLVESGGGLVQAGGSLRLSCAASGRTLPSYSMGCYREAPGKERELFAAITGSGGRTYYADSVKGRFTISRDNAKNSVYLQMNSLKPEDTAVYYCNAYSRTWYARSYYYWGQGTQVTVSS | high polyreactivity
30 | QVQLVESGGGLVQAGGSLRLSCAASGRTLQQYVMGWYRQAPGQERELVAAITRGGRTNYADSVKGRFTISRDNAKNTVYLQMNSLNPEDTAVYYCNTRYPSRLVAWLDYWGQGTQVTVSS | low polyreactivity
